From patent US20030219436A1 come the findings set out here.

Assay [1] concerns the target ligand(s) that bind to CD83, on mouse cells (PBMC monocytes, lymph node lymphocytes, splenocytes). Put plainly: flow cytometry on mouse PBMC. Background: Flow cytometry measures light scatter and fluorescence of single cells or particles in a stream.
The target in assay [2] is ligand(s) that bind to CD83, on human peripheral blood cells (monocytes, some lymphocytes). The experiment in a line: flow cytometry on fresh human PBMC, biotinylated CD83Ig + PE streptavidin.
Assay [3] addresses ligand(s) that bind to CD83, on mouse cells (PBMC monocytes, lymph node lymphocytes, splenocytes). Put plainly: flow cytometry on mouse splenocytes.
For assay [4] the target is unchanged. Put plainly: flow cytometry on mouse lymph node lymphocytes.

In assay [1], “human CD83-hIgG1 fusion protein (extracytoplasmic domain of human CD83 with a human IgG1 tail) (Fc fusion)” gave a percent of cells bound (monocytes in peripheral blood) of 90%. In addition, in assay [2], the percent of cells bound (CD3+ cells, lymphocyte gate) was below 1%; the percent of cells bound (CD3- cells, lymphocyte gate) is 4%; the percent of cells bound (larger cell scatter gate, monocytes) is above 75%. Moreover, the percent of cells bound (non-T cell population of splenocytes) in assay [3] stood at 15%. The molecule further yielded a percent of cells bound (lymphocytes from lymph nodes) in assay [4] below 5%.

B1: human CD83 murine Ig fusion protein (human CD83 extracellular domain upstream of the murine IgG2a Fc domain) (Fc fusion)
chain: MSRGLQLLLLSCAYSLAPATPEVKVACSEDVDLPCTAPWDPQVPYTVSWVKLLEGGEERMETPQEDHLRGQHYHQKGQNGSFDAPNERPYSLKIRNTTSCNSGTYRCTLQDPDGQRNLSGKVILRVTGCPAQRKEETFKKYRAERSEPRGPTIKPCPPCKCPAPNSAGTSSVFIFPPKIKDVLMISLSPIVTCVVVDVSEDDPDVQISWFVNNVEVHTAQTQTHREDYNSTLRVVSALPIQHQDWMSGKEFKCKVNNKDLPAPIERTISKPKGSVRAPQVYVLPPPEEEMTKKQVTLTCMVTDFMPEDIYVEWTNNGKTELNYKNTEPVLDSDGSYFMYSKLRVEKKNWVERNSYSCSVVHEGLHNHHTTKSFSRTPGK
B1 returned a percent of cells bound (monocytes in peripheral blood) in assay [1] of 90%. Besides, the percent of cells bound (non-T cell population of splenocytes) in assay [3] amounted to 15%. The molecule also showed a percent of cells bound (lymphocytes from lymph nodes) in assay [4] below 5%.
